According to patent US20260125454A1 (SHANGHAI JUNSHI BIOSCIENCES, published 2026):

Target: T1, Biotin-huCGRPaSA (human, not fully specified; biotin (position not given))
T1 construct: exact construct ('aSA') not explained; also called Biotin CGRPaSA; full-length (1-37) CGRP
T1 peptide: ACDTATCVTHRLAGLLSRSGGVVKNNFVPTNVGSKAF
Experiment: ELISA, supernatant; relative to chimeric C245
Summary of the method: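 Antibodies, including reference chimeric C245, titrated 2.5-fold from 1000 ng/mL and incubated 60 min at 37°C on wells coated with 1.0 μg/mL biotin-CGRPaSA and blocked with 2% BSA. Bound IgG detected with HRP anti-human Fc antibody and TMB, acid-stopped, absorbance 450/620 nm.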

Binder | Relative binding activity, % [%]
hu105 (antibody, V domains shown, 2B8 HC1-1/1A2 LC2-1) VH: QVQLVQSGAEVKKPGASVKVSCKASGYTFTDYNMHWVRQAPGQGLEWMGNIYPYNGGTVYNQKFNNRVTLTVDTSSSTAYMELSRLRSDDTAVYYCAREGLGGYWGQGTLVTVSS VL: DIVLTQSPASLAVSPGQRATITCKASQNIDYDGYAYLNWYQQKPGQPPKVLIYSVFNLESGVPARFSGSGSGTDFTLTINPVEANDTANYYCQQSNEFPYTFGQGTKLEIK | 31
hu176 (antibody, V domains shown, 3E5 HC-3/1F5 LC1-3) VH: QVQLVQSGAEVKKPGASVKVSCKASGYTFTDYNMHWVRQAPGQGLEWMGYISPYNGGTAYNQKFKFRVTLTVDTSSSTAYMELSRLRSDDTVVYYCAREGLGGYWGQGTLVTVSS VL: DIVLTQSPASLAVSPGQRATITCKASQNIDFDGYAYMNWYQQKPGQPPKVLIYSVFNLESGVPARFSGSGSGTDFTLTINPVEADDTANYYCQQSHEVPYTFGQGTKLEIK | 65
hu171 (antibody, V domains shown, 3E5 HC-3/1A2 LC2-2) VH: QVQLVQSGAEVKKPGASVKVSCKASGYTFTDYNMHWVRQAPGQGLEWMGYISPYNGGTAYNQKFKFRVTLTVDTSSSTAYMELSRLRSDDTVVYYCAREGLGGYWGQGTLVTVSS VL: DIVLTQSPASLAVSPGQRATITCKASQNIDYDGYAYLNWYQQKPGQPPKVLIYSVFNLESGVPARFSGSGSGTDFTLTINPVEADDTANYYCQQSNEFPYTFGQGTKLEIK | 63
hu118 (antibody, V domains shown, 2B8 HC1-2/1A2 LC2-1) VH: QVQLVQSGAEVKKPGASVKVSCKASGYTFTDYNMHWVRQAPGQGLEWMGNIYPYNGGTVYNQKFNNRVTLTVDTSSSTAYMELRSLRSDDTAVYYCAREGLGGYWGQGTLVTVSS VL: DIVLTQSPASLAVSPGQRATITCKASQNIDYDGYAYLNWYQQKPGQPPKVLIYSVFNLESGVPARFSGSGSGTDFTLTINPVEANDTANYYCQQSNEFPYTFGQGTKLEIK | 60
hu132 (antibody, V domains shown, 2B8 HC1-3/1A2 LC2-2) VH: QVQLVQSGAEVKKPGASVKVSCKASGYTFTDYNMHWVRQAPGQGLEWMGNIYPYNAGTVYNQKFNNRVTLTVDTSSSTAYMELSRLRSDDTAVYYCAREGLGGYWGQGTLVTVSS VL: DIVLTQSPASLAVSPGQRATITCKASQNIDYDGYAYLNWYQQKPGQPPKVLIYSVFNLESGVPARFSGSGSGTDFTLTINPVEADDTANYYCQQSNEFPYTFGQGTKLEIK | 108
hu202 (antibody, V domains shown, 3H10 HC-1/1F5 LC1-3) VH: QVQLVQSGAEVKKPGASVKVSCKASGYTFTDYNMHWVRQAPGQGLEWMGYIYPYNGHTVYNQKFRNRVTMTVDTSSSTAYMELRSLRSDDTAVYYCAKEGLGGYWGQGTLVTVSS VL: DIVLTQSPASLAVSPGQRATITCKASQNIDFDGYAYMNWYQQKPGQPPKVLIYSVFNLESGVPARFSGSGSGTDFTLTINPVEADDTANYYCQQSHEVPYTFGQGTKLEIK | 90
hu106 (antibody, V domains shown, 2B8 HC1-1/1A2 LC2-2) VH: QVQLVQSGAEVKKPGASVKVSCKASGYTFTDYNMHWVRQAPGQGLEWMGNIYPYNGGTVYNQKFNNRVTLTVDTSSSTAYMELSRLRSDDTAVYYCAREGLGGYWGQGTLVTVSS VL: DIVLTQSPASLAVSPGQRATITCKASQNIDYDGYAYLNWYQQKPGQPPKVLIYSVFNLESGVPARFSGSGSGTDFTLTINPVEADDTANYYCQQSNEFPYTFGQGTKLEIK | 38
hu196 (antibody, V domains shown, 3H10 HC-1/1A2 LC2-1) VH: QVQLVQSGAEVKKPGASVKVSCKASGYTFTDYNMHWVRQAPGQGLEWMGYIYPYNGHTVYNQKFRNRVTMTVDTSSSTAYMELRSLRSDDTAVYYCAKEGLGGYWGQGTLVTVSS VL: DIVLTQSPASLAVSPGQRATITCKASQNIDYDGYAYLNWYQQKPGQPPKVLIYSVFNLESGVPARFSGSGSGTDFTLTINPVEANDTANYYCQQSNEFPYTFGQGTKLEIK | 45
hu119 (antibody, V domains shown, 2B8 HC1-2/1A2 LC2-2) VH: QVQLVQSGAEVKKPGASVKVSCKASGYTFTDYNMHWVRQAPGQGLEWMGNIYPYNGGTVYNQKFNNRVTLTVDTSSSTAYMELRSLRSDDTAVYYCAREGLGGYWGQGTLVTVSS VL: DIVLTQSPASLAVSPGQRATITCKASQNIDYDGYAYLNWYQQKPGQPPKVLIYSVFNLESGVPARFSGSGSGTDFTLTINPVEADDTANYYCQQSNEFPYTFGQGTKLEIK | 51
hu124 (antibody, V domains shown, 2B8 HC1-2/1F5 LC1-3) VH: QVQLVQSGAEVKKPGASVKVSCKASGYTFTDYNMHWVRQAPGQGLEWMGNIYPYNGGTVYNQKFNNRVTLTVDTSSSTAYMELRSLRSDDTAVYYCAREGLGGYWGQGTLVTVSS VL: DIVLTQSPASLAVSPGQRATITCKASQNIDFDGYAYMNWYQQKPGQPPKVLIYSVFNLESGVPARFSGSGSGTDFTLTINPVEADDTANYYCQQSHEVPYTFGQGTKLEIK | 96
hu157 (antibody, V domains shown, 3E5 HC-2/1A2 LC2-1) VH: QVQLVQSGAEVKKPGASVKVSCKASGYTFTDYNMHWVRQAPGQRLEWMGYISPYNGGTAYNQKFKFRVTLTVDTSSSTAYMELSSLRSEDTAVYYCAREGLGGYWGQGTLVTVSS VL: DIVLTQSPASLAVSPGQRATITCKASQNIDYDGYAYLNWYQQKPGQPPKVLIYSVFNLESGVPARFSGSGSGTDFTLTINPVEANDTANYYCQQSNEFPYTFGQGTKLEIK | 15
hu183 (antibody, V domains shown, 3E5 HC-4/1A2 LC2-1) VH: QVQLVQSGAEVKKPGASVKVSCKTSGYTFTDYNMHWVRQAPGQRLEWMGYISPYNAGTAYNQKFKFRVTLTVDTSSSTAYMELSSLRSEDTAVYYCAREGLGGYWGQGTLVTVSS VL: DIVLTQSPASLAVSPGQRATITCKASQNIDYDGYAYLNWYQQKPGQPPKVLIYSVFNLESGVPARFSGSGSGTDFTLTINPVEANDTANYYCQQSNEFPYTFGQGTKLEIK | 26
hu163 (antibody, V domains shown, 3E5 HC-2/1F5 LC1-3) VH: QVQLVQSGAEVKKPGASVKVSCKASGYTFTDYNMHWVRQAPGQRLEWMGYISPYNGGTAYNQKFKFRVTLTVDTSSSTAYMELSSLRSEDTAVYYCAREGLGGYWGQGTLVTVSS VL: DIVLTQSPASLAVSPGQRATITCKASQNIDFDGYAYMNWYQQKPGQPPKVLIYSVFNLESGVPARFSGSGSGTDFTLTINPVEADDTANYYCQQSHEVPYTFGQGTKLEIK | 78
hu170 (antibody, V domains shown, 3E5 HC-3/1A2 LC2-1) VH: QVQLVQSGAEVKKPGASVKVSCKASGYTFTDYNMHWVRQAPGQGLEWMGYISPYNGGTAYNQKFKFRVTLTVDTSSSTAYMELSRLRSDDTVVYYCAREGLGGYWGQGTLVTVSS VL: DIVLTQSPASLAVSPGQRATITCKASQNIDYDGYAYLNWYQQKPGQPPKVLIYSVFNLESGVPARFSGSGSGTDFTLTINPVEANDTANYYCQQSNEFPYTFGQGTKLEIK | 75
hu158 (antibody, V domains shown, 3E5 HC-2/1A2 LC2-2) VH: QVQLVQSGAEVKKPGASVKVSCKASGYTFTDYNMHWVRQAPGQRLEWMGYISPYNGGTAYNQKFKFRVTLTVDTSSSTAYMELSSLRSEDTAVYYCAREGLGGYWGQGTLVTVSS VL: DIVLTQSPASLAVSPGQRATITCKASQNIDYDGYAYLNWYQQKPGQPPKVLIYSVFNLESGVPARFSGSGSGTDFTLTINPVEADDTANYYCQQSNEFPYTFGQGTKLEIK | 71
hu144 (antibody, V domains shown, 3E5 HC-1/1A2 LC2-1) VH: QVQLVQSGAEVKKPGASVKVSCKTSGYTFTDYNMHWVRQAPGQRLEWMGYISPYNGGTAYNQKFKFRVTLTVDTSSSTAYMELSSLRSEDTAVYYCAREGLGGYWGQGTLVTVSS VL: DIVLTQSPASLAVSPGQRATITCKASQNIDYDGYAYLNWYQQKPGQPPKVLIYSVFNLESGVPARFSGSGSGTDFTLTINPVEANDTANYYCQQSNEFPYTFGQGTKLEIK | 101
hu197 (antibody, V domains shown, 3H10 HC-1/1A2 LC2-2) VH: QVQLVQSGAEVKKPGASVKVSCKASGYTFTDYNMHWVRQAPGQGLEWMGYIYPYNGHTVYNQKFRNRVTMTVDTSSSTAYMELRSLRSDDTAVYYCAKEGLGGYWGQGTLVTVSS VL: DIVLTQSPASLAVSPGQRATITCKASQNIDYDGYAYLNWYQQKPGQPPKVLIYSVFNLESGVPARFSGSGSGTDFTLTINPVEADDTANYYCQQSNEFPYTFGQGTKLEIK | 49
hu111 (antibody, V domains shown, 2B8 HC1-1/1F5 LC1-3) VH: QVQLVQSGAEVKKPGASVKVSCKASGYTFTDYNMHWVRQAPGQGLEWMGNIYPYNGGTVYNQKFNNRVTLTVDTSSSTAYMELSRLRSDDTAVYYCAREGLGGYWGQGTLVTVSS VL: DIVLTQSPASLAVSPGQRATITCKASQNIDFDGYAYMNWYQQKPGQPPKVLIYSVFNLESGVPARFSGSGSGTDFTLTINPVEADDTANYYCQQSHEVPYTFGQGTKLEIK | 46
hu184 (antibody, V domains shown, 3E5 HC-4/1A2 LC2-2) VH: QVQLVQSGAEVKKPGASVKVSCKTSGYTFTDYNMHWVRQAPGQRLEWMGYISPYNAGTAYNQKFKFRVTLTVDTSSSTAYMELSSLRSEDTAVYYCAREGLGGYWGQGTLVTVSS VL: DIVLTQSPASLAVSPGQRATITCKASQNIDYDGYAYLNWYQQKPGQPPKVLIYSVFNLESGVPARFSGSGSGTDFTLTINPVEADDTANYYCQQSNEFPYTFGQGTKLEIK | 23
hu137 (antibody, V domains shown, 2B8 HC1-3/1F5 LC1-3) VH: QVQLVQSGAEVKKPGASVKVSCKASGYTFTDYNMHWVRQAPGQGLEWMGNIYPYNAGTVYNQKFNNRVTLTVDTSSSTAYMELSRLRSDDTAVYYCAREGLGGYWGQGTLVTVSS VL: DIVLTQSPASLAVSPGQRATITCKASQNIDFDGYAYMNWYQQKPGQPPKVLIYSVFNLESGVPARFSGSGSGTDFTLTINPVEADDTANYYCQQSHEVPYTFGQGTKLEIK | 93
